From PMC5143422 (Cell Research, 2016) come the findings set out here.

The term stoichiometry N denotes the number of molecules, sites or subunits per partner or assembly.

The target in data set [1] is FabZ (β-hydroxyacyl-ACP dehydratase) from Helicobacter pylori (Helicobacter pylori) (UniProt O25928). Nature of the data set: SEC-MALS. In general terms: SEC sorts molecules by how far they enter the pores of the column.
Data set [2] has the same target. Description: MST.
The data set “SEC-MALS” concerns the molecule itself. Description: SEC-MALS.

In turn, “holo-acyl carrier protein (holo-ACP) from Helicobacter pylori (natural protein)” displayed a stoichiometry N (holo-ACP per FabZ hexamer) in data set [1] of 3. For the same molecule, in data set [2], the KD, first phase of the triphasic binding curve came out at 0.354 µM; the KD, second phase of the triphasic binding curve was determined as 16.2 µM; the KD, third phase of the triphasic binding curve was found to be 297 µM.

B1: FabZ (β-hydroxyacyl-ACP dehydratase) from Helicobacter pylori (enzyme)
chain: MEQSHQNLQSQFFIEHILQILPHRYPMLLVDRIIELQANKKIVAYKNITFNEDVFNGHFPNKPIFPGVLIVEGMAQTGGFLAFTSLWGFDPEIAKTKIVYFMTIDKVKFRIPVTPGDRLEYHLEVLKHKGMIWQVGGTAQVDGKVVAEAELKAMIAER
modifications: fluorescence dye NT-647 (amine-reaction) in the MST assay only
On to B1, for which, in the data set “SEC-MALS”, the “stoichiometry N” value is 6.
